Laboratory results published in paper PMC9826837 (The Journal of Biological Chemistry, 2022).

Molecular target: rat cardiac troponin I (cTnI), Ser22/23 bisphosphorylated (rat, UniProt P23693 1-211, phosphoserine at 22 and 23)
Experiment: SEC-MALS

B1: rat cardiac troponin T (cTnT) (natural protein)
chain: not shown
stoichiometry N: 1
